Measurements from the nanobody polyreactivity screen of Harvey et al. (2022).

Assay: yeast display, Sf9 membrane polyspecificity reagent, FACS + sequencing; frameworks hold sequencing errors
Summary of the method: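 Sorting gates, low and high (top ~1%), were placed on anti-HA fluorescence to track expression and on streptavidin fluorescence to track reagent binding. A clone's polyreactivity label is taken from the gate it came out of. The reagent was 10% biotinylated, detergent-solubilized Sf9 membrane, applied for 1 hour at 4 °C to galactose-induced yeast display cells.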

| Sequence | polyreactivity (PSR sort gate) |
| --- | --- |
| QVQLVESGGGLVQAGGSRLLSCAASGGTFSFYAMGWYRQAPAKEREFVAAITASDGSTYYADSLTGRFTISRDNAKNTVYLQMNSLKPEDTAVYYCAADAYGYKFNSWVQGTQVTVSS | low polyreactivity |
| QVQLVESGGGLVQAGGSRRIICAASGGTFYYYAMGWYRQAPGKERELVAAITWSGASTRYADSVKGRFTISRDNAKNTVYLQMNSLKPEDTAVYYCAARRVRPLVTYGYWGQGTQLTVSS | high polyreactivity |
| QVQLVESGGGLVQAGGSRRLICAASGSIFYTNAMGWYRPAPAKERELVARISFSDGTTNYADSVKGRFTISRDNAKNTVYVQMNSLKPEDTAVYYCATDLYGRPVRFDYWGQGTQVTVSS | low polyreactivity |
| QVQLVESGGGLVQAGGSRRLSCAAAGSTFGVIVMGWYREAPGKEREVVAAITKSGGSTYYADSVKGRFTISRDNAKNTVYLQMNSLKPEDTAVYFCIDAWGREYDYWGQGTQVHVSS | high polyreactivity |
| QVQLVESGGGLVQAGGSRRLSCAACGFIFEKNAMGWYRQAPGKERELVAAISGGGITNYADSVKGRFTISRDNEKKTVYLHMNSLKPQDTAVYYCAKTRRRLLTRYDYWGQGTQVTVSS | low polyreactivity |
| QVQLVESGGGLVQAGGSRRLSCAASGRIFLGYTMGWYRQAPGKERELVAAISKSGDSTYYADSVKGRFTISRDNAKNTVYLQMNSLKPEDTAVYYCAAKRYRVGYGYWGQGTQVTVSS | high polyreactivity |
| QVQLVESGGGLVQAGGSRRLSCAASGRTFWAYAMRCYRQAPGKERELVAAITASGTRTYYADSVKGRFTISRDNAMNTDYLQRNRLKPQDTAGYYCAAERIWWAHAYPTYVANDYWGQGTQGTVSS | high polyreactivity |
| QVQLVESGGGLVQAGGSRRLSCAASGSIFPQYAMGWYRQAPGKERELVAAITWSGSRTRYADSVKGRFTMSRDTAKNTGYLQMNSLKPEDTAVYDCAARFNGQTYYYWGQGTQVTLSS | high polyreactivity |
| QVQLVESGGGLVQAGGSRRLSCAASGSIFSQYAMGWYRQAPGKEREFVAAINWSGGRTRYADSVKGRFTISRDNAKNTVYLQMNSLKPEDTAVYYCAKVYSLYSYSGRYDYWGQGTQVTVSS | high polyreactivity |
| QVQLVESGGGLVQAGGSRRLSCAASGSTFRRYAMGWSRQAPWKERELVAAISGRGGSTSYADSVKGRFTISRDNAKNTVYLQMNSLKPEDTAVYYCNARGYPSRFKYYYWGEGTQVTVSS | high polyreactivity |
| QVQLVESGGGLVQAGGSRRLSCAASGSTFRYNTMGWYRQAPGKERDLVAAITGGGGSTYYADSVKGRFTISRDNAKNTVYLQMNSLKPEDTAVYYCAKRHWYDCYVSSYTTRYDYWGQGTQVTVSS | low polyreactivity |
| QVQLVESGGGLVQAGGSRRLSCAASGSTFRYYAMGWYRQAPGKERELVAAISKRGGSTYYADSVKGRFTISRDNAKNTVYLQMNSLKPEDTAVYYCAAYGSVGLEYWGQGTQVTVSS | high polyreactivity |
| QVQLVESGGGLVQAGGSRRLSCAASGSTFYGYAMGWYRQAPGKEREFVAAITTSGGSTYYADSVKGRFTISRDNAKNTVYLQMNSLKPEDTAVYYCDADAPSWYDRQYDYWGQGTQVTVSS | low polyreactivity |
| QVQLVESGGGLVQAGGSRRLSCAASGSTFYGYAMGWYRQAPGKERELVAAIRRIGGTTYADSVKGRFTLSRDNAKNTVYLQMNSLKPEDTAVYYCAAYGFSYRYRYYYWGQGTQVTVSS | high polyreactivity |
| QVQLVESGGGLVQAGGSRRLSCAASGSTFYPYSMGWYRQAPGKESELVAAITWSGGRTYYADSVKGRFTISRDNANNTVYLQMNSLKPEDTAVYYCAADRPDGWVDYWGQGTQVTVSS | low polyreactivity |
| QVQLVESGGGLVQAGGSRSLSCAASGFTFQGNVMGWYTQAPGKERELVAAISGGGGRTYYADYVKGRFTISRDNAKYTVYLQMNSLIPEDTAVYYCIVRLLGSNRAGVRCDYWGQGTQVTVSS | high polyreactivity |

| Sequence | polyreactivity (PSR sort gate) |
| --- | --- |
| QVQLVESGGGLVQAGGSVRLSCAASGFTFWRYAMGWYRQAPGKEREFVAAITRSGVSTSNADSVKGRFTISRDNAKNTVYLQMNSLKPEDTAVYYCAALFYTSVPYPDYDYWGQGTQVTVSS | high polyreactivity |
| QVQLVESGGGLVQAGGSVRLSCAASGISFQYNALGWYRQAPGTERELVAGITWSGTSTYFADSVKGRFTISRDNAKNTVYLQLNSMKPEDTAVYYCAAVRGYRGYDYWGQGTQGTVSS | high polyreactivity |
| QVQLVESGGGLVQAGGSVRLSCAASGRIFGYYAMGWYRQAPGKERELVAAINWNVGSTYYADSVKGRFTISRDNAKNTVYLQMNSLKPEDTAVYYCAAVGRYSRLLGKYDYWGQGTQVTVSS | low polyreactivity |
| QVQLVESGGGLVQAGGSVRLSCAASGSIFGWYAMGWYRQGPGKEREWVATITDRGGRTYYADSVKGRFTISRDNAKNTVYLQMNSLKPEDTAVYYCAADDCPFEAEYDSWGQGTQVTVSS | low polyreactivity |
| QVQLVESGGGLVQAGGSVRLSCAASGSTFLHYAMGWYRQPPGKERELVAAITDSGGNTYYADSVKCRFTISRDNAKNTVYLQMNSLKPEDTAVYYCAAEYIFHYYDIFDYWGQGTQVTVSS | high polyreactivity |
| QVQLVESGGGLVQAGGSVRLSFAASGSSIFGNFMGWYRQAPGKERELVAGITNRGGSTYFADSVKGRFTISRDNAKITVYLQMNSLKPEDTAVYYCAARKNHSGYGRGNYWGQGTQVTVSS | high polyreactivity |
| QVQLVESGGGLVQAGGTIRLSCAASGIIFRLNPMGWYRQAPGKERELVAAIRRRGGSTYYADSVKGRFTISRDNGKNNVYLQMYSVKPEETEVYHCAKDPHGSDFGYWGQGTHVTVSS | low polyreactivity |
| QVQLVESGGGLVQAGGTLRFSCAATGSIFDPYARGWYRQAPGKEREFVAAITYTGGDTHYADSVKGRFSISRDKAKNTVYLQLNSLKPEDSAVYYFAAVYYRGIQSYDYWGQGTQVTVSS | low polyreactivity |
| QVQLVESGGGLVQAGGTLRISCAASGRIFTIYAMGWYRQAPGKERELVATISSNVGSTYYADSVKGRFTISRDNAKNTVYLQMNSLKPEDTAVYYCAATRRAGFTTAKFDYWGQGTQVTVSS | high polyreactivity |
| QVQLVESGGGLVQAGGTLRISCAASGSIFYLYAMGWYRQAPGKERELVAGIRYRGGSTYYADSVKGRFTISRDNAKNTVYLQMNSLKPEDTAVYYCAAEYGDGRYWSYDYWGQGTQVTVSS | high polyreactivity |
| QVQLVESGGGLVQAGGTLRLSCAACGRTFPINAMAWYRQAPGKERELVASIRWTDGTTYYADSVKGRFTISRDNAKNTVYLQMNSLKPEDTAVYYCAADAEGSASKYDYWGQGTQVTVSS | low polyreactivity |
| QVQLVESGGGLVQAGGTLRLSCAASGFTFSSYTVGWYRQAPRKERELVASISSGGSTNYADSVKGRFTISRDNAKNTVYLQMNSLIPEDTAVFYCAAGTPCISFYDVCSGYDYWGQGTQVTVSS | low polyreactivity |
| QVQLVESGGGLVQAGGTLRLSCAASGLIFFFYAMGWYRQAPGKERELVAAISDDGVSTDYADSVKGRFTISRDNAKNTVYLQMNSLKPEDTAVYYCAAKTERVYPWFSFGYWGQGTQVTVSS | low polyreactivity |
| QVQLVESGGGLVQAGGTLRLSCAASGLIFGRNAMGWYRQAPGKEREFVATYADSVKGRFTISRYNAKNTVYLQMNSLKPEDTAVYYCATRFVWPSYGYYVQGRFDSWGQGTQVTVSS | low polyreactivity |
| QVQLVESGGGLVQAGGTLRLSCAASGRIFRENAMGWYRQAPGKERELVAAISSGGSTYYADSVKGRFTISRDNAKNTVYLQMNSLKPEDTAVYYCAADLSWSRVVFGDYDYWGQGTQVTVSS | low polyreactivity |
| QVQLVESGGGLVQAGGTLRLSCAASGRIFRYNGMGWYRQAPVKERELVAGINWIGGRTYYADSVKGRFTISRDNAKNTVYLQMNSLKPEDTAVYYCAAYWYYIKATTDSDARFDYWGQGTQVTVSS | high polyreactivity |
